The target in the assay is cynomolgus Gal10-His (WGS isoform) (cynomolgus). The experiment in a line: SPR Biacore 3000 on cynomolgus Gal10 (WGS isoform). On the technique in general: In SPR one partner is held on a chip, and binding of the other changes the refractive index at the surface.

For orientation: Kd means the concentration at which binding is half-saturated.

B1: g7B07-mIgG1 (antibody, V domains shown)
VH: EVQLLESGGGLVQPGGSLRLSCAASGFTFRSYDMSWVRQAPGKGLEWVSAIKNGGGITYYADSVKGRFTISRDNSKNTLYLQMNSLRAEDTAVYYCATTHGIGTLGFGSWGQGTLVTVSS
VL: SYELTQPLSVSVALGQTARITCDGNNIGSKSAQWYQQKPGQAPVLVIYADEYRPEGIPERFSGSNSGNTATLTISRAQAGDEADYYCQVWDGSAAVFGGGTQLTVL
For the molecule B1, the dissociation constant (Kd) came out at 1.5 nM.

These data come from US20250059285A1.
